Here are results for 20 sequences from a protein production outcome set (Wang et al. 2014).

The data set can be described thus: label from the status in PepcDB records.
On to “MRLLACWTDVHHRHAPMTAHDLPRQAFLRGAVAILPLSLAVAPWGLLAGSMAIEANLTPAEGQGLSAIVFAGAAQLVAIGMLKGGAGFFSIIFTTLLLTSQHLLYGMSLRPVLSPLPGRWRIGLGFLLTDEFFALASQHDRRNFNRWYALGVGLTFYIAWNLFTLAGILLGRSIPGLEHLGLDFSIAATFIALVAPLVRNVPTLVCVATSLFCSVLFSHWQWSSALVLAGLAGMAAGFICNKLYREAPWSGQ”, for which the protein production result is reported as “failed”.

“VNELLHLAPNVWPRNTTRDEVGVVCIAGIPLTQLAQEYGTPLFVIDEDDFRSRCRETAAAFGSGANVHYAAKAFLCSEVARWISEEGLCLDVCTGGELAVALHASFPPERITLHGNNKSVSELTAAVKAGVGHIVVDSMTEIERLDAIAGEAGIVQDVLVRLTVGVEAHTHEFISTAHEDQKFGLSVASGAAMAAVRRVFATDHLRLVGLHSHIGSQIFDVDGFELAAHRVIGLLRDVVGEFGPEKTAQIATVDLGGGLGISYLPSDDPPPIAELAAKLGTIVSDESTAVGLPTPKLVVEPGRAIAGPGTITLYEVGTVKDVDVSATAHRRYVSVDGGMSDNIRTALYGAQYDVRLVSRVSDAPPVPARLVGKHCESGDIIVRDTWVPDDIRPGDLVAVAATGAYCYSLSSRYNMVGRPAVVAVHAGNARLVLRRETVDDLLSLEVR”: the protein production entry is listed as “not failed”.

In the case of “MHLGSTFYDETELRSLPFRHLGANVKIKRTAGLFFVENISIMDDARIDDFTIIVASREHVEIGCNVHIASQCYISGSDGFVMEDFSGLAPGVKIYTSSDDYTGEKMTNPTLPRHLIGGPAGKVVLRKHVIIGSNSVVLPKVTIEEGSSVGSLSLVNKSLPAWGVYAGIPVRRLRDRSQNILILEKELGASRA”, the protein production result was “failed”.

On to “MRTVSHPTPLRRAPVQRRSAERLTRILDACADLLDEVGYDALSTRAVALRADVPIGSVYRFFGNKRQMADALAQRNLERYAERVTERLTEAGDGGWRGALDTVLDEYLAMKRTAPGFSLIDFGNQIPVGDRHAVPNHRVAERLTELLSGYLGRRPDDDLRRVFLVAVETADTLVQLAFRVAPDGDEKIIEEARELLRAYLGRVLD”, for which the protein production entry is on record as “not failed”.

For the sequence “MKPMEAAMGLIRFCLLFLALATPVNAAKLFLTTEVYPPYNLQASDGSVHGVYFDQLKIVLQDTDTDYEVAVMPWARAIALATTQAMHCVFATARTPEREKLFKWVAPIHTDRNILVARREANIEASSLEDARRYRVGTQRGDYTEALLEKLGFPQVDVGADFEITLNKLKLGRIDLMPMSESTLKSLPANSFKEVITLSRQQLGLACNKTVPDQIIAKLQARLDKLIADGTQQQIFDRYSLVSP”, the protein production result was “failed”.

Regarding “MNDDSQDKIIHDIRIQLRKAATELSRWKLYGSSKWAAEALAGLAEAIDVDQTHSLADESPLRNKQGVPKQMFEIPQNGFGLSETEYDLYLLGSTLFDAKEFDRCVFFLKDVTNPYLKFLKLYSKFLSWDKKSQESMENILTTGKFTDEMYRANKDGDGSGNEDINQSGHQRANLKMVSNEHESQSNISSILKEINTFLESYEIKIDDDEADLGLALLYYLRGVILKQEKNISKAMSSFLKSLSCYSFNWSCWLELMDCLQKVDDALLLNNYLYQNFQFKFSENLGSQRTIEFNIMIKFFKLKVFEELNGQLEDYFEDLEFLLQVFPNFTFLKAYNATISYNNLDYVTAESRFDDIVKQDPYRLNDLETYSNILYVMQKNSKLAYLAQFVSQIDRFRPETCCIIANYYSARQEHEKSIMYFRRALTLDKKTTNAWTLMGHEFVELSNSHAAIECYRRAVDICPRDFKAWFGLGQAYALLDMHLYSLYYFQKACTLKPWDRRIWQVLGECYSKTGNKVEAIKCYKRSIKASQTVDQNTSIYYRLAQLYEELEDLQECKKFMMKCVDVEELLEGIVTDETVKARLWLAIFEIKAGNYQLAYDYAMGVSSGTSQEIEEARMLARECRRHM”, the protein production result was “failed”.

With “MTIGEIIDCLNRRESIAIIAKRLEISPYTLSKKLRLIGYEYDGEQKKRIFVGDGEEPRHLQLQEATALQYAKTDYQLLIYEQLQSIYELLRKREEVIVPIMNISTEKKKRTFSINKEILAKLDVISESKGIQKSKLVEEALQQFLQQYDFNNTSHFDN”, the protein production entry is on record as “failed”.

For “MDAEEKDGVLYFEGQVLTGAKVNSVIDHTLLDFGCEAEETIVSCGEDTSNPHGTTEGPLRANAPIILDIFPRSKKKRYFADMTRTVLRGEASEKLKEMYETVLVAQQKALEMVKPGIHSSEIHRAVCDLFEARGYHTYRSGSKAGFTHSTGHGVGLDIHELPSVGESGVLLETGNVITIEPGLYYPGIGGIRLEDMVLVTKTGYENFTGLEKKFVLKSFYNLEHHHHHH”, the protein production result is “not failed”.

Take “MVKNEVLMRVAELLKHRAENLVKHTEFKQWMSPSVREYWDDILNKTQSRPLFGWVKDLHLPANEDTPIPEPIELKPEAQALYDELQTQVGEVIHTGDWLLVDQERINQFGAVTEDMQWIHTNPDRAALESPFKTTIAHGFLTLALLPKLTDSVDEEKTLFPTAKMVVNIGLNSVRFPYPVKAGNRVRAVSTLSKVTPIKKGLEIEREIKVEIEGVRRPGCVVVSVIQLHF”: the protein production entry is given as “failed”.

Consider “MKPALVVVDMVNEFIHGRLATPEAMKTVGPARKVIETFRRSGLPVVYVNDSHYPDDPEIRIWGRHSMKGDDGSEVIDEIRPSAGDYVLEKHAYSGFYGTNLDMILRANGIDTVVLIGLDADICVRHTAADALYRNYRIIVVEDAVAARIDPNWKDYFTRVYGATVKRSDEIEGMLQEDQIET”, for which the protein production entry was “not failed”.

Turning to “MSNELLMSSAEYPAHQENKRFRGASSQNITVILPACNNEVSIGSLILLTRLYADNVIVVDDGSTDRTVEISRKAGAHVIVNEACKGKVGSLRTGFTAAADLGADIIVTMDPDGQHNPAEIPRIVAPIIDGTAEMVNGSRYLNYPGKNSSVYSRTGQTMQDISANMNFNLKITDTQSGFRAYAASTKSIFRFSGKKTAIENEMLADAGRSGIRIAEVEIGACTSVGASIRDPVKYTLGALRTMAEDIEANKPLYFYSVPGFALATCGFFMGFKFMADYFFGIASLNFGHTFLMVFLALAGAYMTLRGIIAHSMAGAARQTDST”, the protein production entry is reported as “failed”.

For “MKKVCLSLLMGLMVQMTFGQTLEKMQWFNEPEQWEIKNNVLSMSVTPQSDYWRISHYGFTVDDAPFYYATYGGEFEAKVKVVGEYKERFDQAGLMLRIDHENYIKAGIEFVDGKFNLSTVVTHKTSDWSVITLDKTVPYIWIKAVRRLDAVEIFYSFDDKTYTLMRNAWLQDHIPVKVGLMAACPDGSGFNAKFEYFQVKHLPDQRRVEWLKKNAELEHHHHHH”, the protein production entry is “failed”.

For “MEPTAPAPTPAATRNTESTAKIVYVLYLLSFAAGITTLIGVVMAYVNEGDAPEGLRTHYRFQIRTFWIGLLYAVVGGLLTIVGIGALILLFVAVWLVIRCVKGLKWLDQRQPVPNPATWLW”, the protein production entry is “failed”.

In the case of “MQLVVARIGRAHGIKGEVTVEVRTDEPELRLGPGAVLATDPASVGPLTIETGRVHSGRLLLRFEGVRDRNGAEALRNTLLIAEVDPDEVPEDPDEYYDHQLMDLDVVTKDGTEVGRITEISHLPSQDLFVVERSDGSEVYIPFVEEIVVEIDLEEQRAVIDPPPGLIDDRAEVDSSDTEAATEADALEHHHHHH”, the protein production entry is listed as “not failed”.

“MKFGETFDMVLSDVRGKKIHASVKREHLNRFERLIVPGEWRAIENFGLTYATGQFKATDHRYKMGFMAQTRVVRIDPLSDSYFLSLTAFNDVLNGGLNQNYLIDVVGQIVNVGEMETIDVHNQPTKKIDFELRDQKDERLPCTLWGSFAEQVFTACEAANGEMIICLVRFAKLKTYKDVRSISNAFNTSQILINPDLPEILEFKDALPKDCLALTLIESKPKSKIDEFPTGDFYLQFAKKTIKEVSEMFDVGRVKVLCTIYDIDRDWSWYYIVCKKCNKKVTKVVMTSLKAQLWCETCRAPITNVLARYKLHVKVMDSSGEMKLMLFDAMSSEIVGCPANNLLDGSFDEIEDPDILPDSIKNLIGKTYQYLVCVENENKRYQMHDSIDQCSLMLTYSEEPSEATTPSSKRSSDTSISPADNFSTTKKLCLDSIKIVKIKQEMVEKNNEAKVVGEKLNF”: the protein production result is “failed”.

Take “MFQDNPLLAQLKQQIQEKLPKKEGTIKATERGFGFLESDDKKKSIFIPPAQMKKVMHGDKVVALIRTENEKEQAEPDQLIEQSITRFIGRIQMFKKRLQVMPDHPSLKNAIKAKTRKGVNPETLKEGDWVVAELTQHPLKGDQGFQCDITHKITDSDDKIAPWWVTLAQNDLPNSEPEGIEHWEIKDDADLVRVDMTATPFVTIDGESTKDMDDALYIKKLENGSFELTIAIADPTAYITPDDSMDKVARERGYTIYLPGRNIPMLPRDLSDELCSLIEGQERPALCCTVLVDANGNIQEDSINFFAATIKSHARLAYDHVSDFLETGSCDKWQPNDTIAQVVTELYEFAQVRTTWRETHAVIFPDRPDYRFELSEDNDVIAIHADMRRTANKLVEEAMVTANICAGKTLRAAFNMGVFNSHAGIKSDKLKDVVEIVNQLEGVDFTEEQIATLEGFSELRRLLGKQPTSYLDARIRKFQTYSETGNEPLPHYAMGLDIYATWTSPIRKYSDMINHRMLKAHILGKEPVQRPDDIVGEELAISRRFHRMAERNVSDWLYCRTLASEVEKETKYTAEIFDINRAGMRVRLIENGAAAFIPGSLIVDNKERIECNADQGIISIDKHETFKLGDQLHVVLAEVKEDTRNMVAKPLQAFPAPEPEEAPVVENEDATTNATTSADA”: the protein production result is reported as “failed”.

Regarding “MSLSNSKSTTTKDTVATLPNGASSLTETYGLWSINCGIQEGKKVCFMHRQEVNDQNRVVVAMSVVLNADGVVSGNLTVPFGILVSKPVRLQVDEGKAVIETGIRTCVPAGCIVPIVFDKNYVAALRAGKHLKLAMTIAAPGEPPLNDLFVQLNGFSNALNRLIALQKEGHHHHHH”, the protein production entry is on record as “not failed”.

As for “MVPDPFRVGPWTSVREAARLMAQRRVGSLVVVEDGQVLGVVTSRDLRGAHPNRLVVDVLKGPPVAISPEASLLEAKRLMEAKGLERLLVMRDRKLLGILTQGTLAFALGQHFDPLTGLPRADLLRHHLESLLAQGKDPTLLFVDLDDFGRLNKENGHPFGDRVLKTLGQRLKGFAQDLGGEVYRYGGDEFALVFPHPRQALLPALPSLLSPLEVEGKRVGFSVGVAGGRRRQRRVSANPSATADDLLKLASLASTHAKRQGSGWAPAEALKAKEGAPEGVSSPKEPQSAWGDNRRAARGGGGPRSGGRGSGPTGP”, the protein production entry is given as “failed”.

In the case of “MLNDQEVLSMSSVSLSPLFRRSIGFDRLNDLFDYAMQSETPNYPPYNIEKDGENNYRILIASAGFDQDELRIHLENQVLTISGQPDSEQVDKNIEYLHKGIARRAFKLSLRLDEHIEVQQADYENGLLKIELQRIIPEEKMPRQIPIGQSKSIKNIESSKIVNS”, the protein production entry is “failed”.

As for “MNTKLTKIISGLFVATAAFQTASAGNITDIKVSSLPNKQKIVKVSFDKEIVNPTGFVTSSPARIALDFEQTGISMDQQVLEYADPLLSKISAAQNSSRARLVLNLNKPGQYNTEVRGNKVWIFINESDDTVSAPARPAVKAAPAAPAKQQAAAPSTKSAVSVSKPFTPAKQQAAAPFTESVVSVSAPFSPAKQQAAASAKQQTAAPAKQQAATPAKQTNIDFRKDGKNAGIIELAALGFAGQPDISQQHDHIIVTLKNHTLPTTLQRSLDVADFKTPVQKVTLKRLNNDTQLIITTAGNWELVNKSAAPGYFTFQVLPKKQNLESGGVNNAPKTFTGRKISLDFQDVEIRTILQILAKESGMNIVASDSVNGKMTLSLKDVPWDQALDLVMQARNLDMRQQGNIVNIAPRDELLAKDKAFLQAEKDIADLGALYSQNFQLKYKNVEEFRSILRLDNADTTGNRNTLVSGRGSVLIDPATNTLIVTDTRSVIEKFRKLIDELDVPAQQVMIEARIVEAADGFSRDLGVKFGATGKKKLKNDTSAFGWGVNSGFGGDDKWGAETKINLPITAAANSISLVRAISSGALNLELSASESLSKTKTLANPRVLTQNRKEAKIESGYEIPFTVTSIANGGSSTNTELKKAVLGLTVTPNITPDGQIIMTVKINKDSPAQCASGNQTILCISTKNLNTQAMVENGGTLIVGGIYEEDNGNTLTKVPLLGDIPVIGNLFKTRGKKTDRRELLIFITPRIMGTAGNSLRY”, the protein production entry was “failed”.
